The values that follow come from article PMC9904277 (2023).

The IC50 is the point on the concentration scale where inhibition reaches its midpoint. A higher IC50 goes with weaker potency.

This experiment has as its target MCL-1 (Homo sapiens, UniProt Q07820). The experiment in a line: competition fluorescence anisotropy.

Chain of MCL-1 (Q07820 whole entry): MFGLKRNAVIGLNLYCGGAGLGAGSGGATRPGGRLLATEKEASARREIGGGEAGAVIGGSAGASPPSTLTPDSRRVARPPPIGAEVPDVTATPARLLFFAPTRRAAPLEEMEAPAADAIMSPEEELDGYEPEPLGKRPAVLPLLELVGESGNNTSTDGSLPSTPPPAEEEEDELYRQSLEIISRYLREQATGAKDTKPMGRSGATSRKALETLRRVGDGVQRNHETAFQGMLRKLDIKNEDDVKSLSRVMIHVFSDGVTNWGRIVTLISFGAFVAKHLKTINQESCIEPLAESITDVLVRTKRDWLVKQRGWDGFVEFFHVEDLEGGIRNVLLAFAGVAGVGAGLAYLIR

As for NLWAAQRYGRELRRMSDEFVDSFKK [BAD-wt BH3], the IC50 is above 50000 nM.
Molecule SAAQLTAARLKALGDELHQRTMW [HRK-wt 28-50] showed an IC50 of 2700 nM.
